Values quoted from earlier work as cited in publication PMC7077193.

Target: eIF4E (Lactuca sativa)

With VPg (from UniProt P31999) as the substance, how does the Kd read?
The Kd was 300 nM.
